Assay results reported in patent US10759836B2, “Cancer vaccine compositions and methods of use thereof” (UNIVERSITY OF WASHINGTON, priority 2014, dated 2020).
Entries after “also recorded” stand apart in the source; their conditions may differ.

Columns and labels:
[1] = test system: small bowel tumor burden in APCmin mice; experiment: APCmin mouse model: small bowel tumor count after peptide vaccination; assay type: in vivo; details: for effect on small bowel tumor burden (tumor count): APCmin mice, vs CFA/IFA control, 50 ug per peptide s.c.; for peptide efficacy, APCmin Small Bowel (Spontaneous): summary table, Yes/No
Procedure: (§1) Offspring from APCmin were genotyped by PCR for the presence of the Min mutation using primers as follows: Wild-Type: 5′-[…]-3′ (SEQ ID NO: 46), Common 5′-[…]-3′ (SEQ ID NO: 47), Mutant: 5′-[…]-3′ (SEQ ID NO: 48). Both male and female mice testing positive for the Min mutation were included in the study and randomized into groups.
(§2) At 4-6 weeks of age, mice were immunized in CFA/IFA, PBS, and vaccine groups. Each group received subcutaneous injections (100 ul PBS, 50 ul CFA with 50 ul PBS, 50 ug per peptide with 50 ul CFA) once every 7-10 days for a total of three doses and one booster was given 4-5 weeks after the third vaccine. See Table 5 for peptides included in vaccine compositions. CFA was replaced with IFA after the first vaccine. All mice were sacrificed at 14 to 17 weeks of age, the gastrointestinal tracts were collected and tumors counted.

[2] = test system: colon tumor burden in APCmin mice; experiment: APCmin mouse model: colon tumor count after peptide vaccination; assay type: in vivo; details: for effect on colon tumor burden (tumor count): APCmin mice, vs CFA/IFA control, 50 ug per peptide s.c.; for peptide efficacy, APCmin Colon (Spontaneous): summary table, Yes/No
Procedure: as §1, §2

[3] = test system: colon tumor burden in AOM mice (Azoxymethane + FVB); experiment: AOM mouse model: colon tumor count after peptide vaccination; assay type: in vivo; details: for effect on colon tumor burden (tumor count): AOM treated FVB mice, vs control group (CFA/IFA; PBS for IGF1R, PRL3, RCAS1); for peptide efficacy, Azoxymethane + FVB (Induced): summary table, Yes/No
Procedure: AOM mouse in-vivo experiments. At 6 weeks of age, FVB mice were immunized in CFA/IFA, PBS, and vaccine groups. Each group received subcutaneous injections (100 ul PBS, 50 ul CFA with 50 ul PBS, 50 ug per peptide with 50 ul CFA) once every 10-14 days for a total of three doses and a booster was given every 4-5 weeks after the third vaccine. See Table 7 for peptides included in vaccine compositions. CFA was replaced with IFA after the first vaccine. Seven days after the third vaccine, mice were injected with Azoxymethane (AOM) at 10 mg/kg, twice weekly for 6 weeks. At 26 weeks of age, all mice were sacrificed and tumors in the colon were counted.

[4] = test system: MC-38 cells (murine adenocarcinoma); experiment: MC-38 tumor implant model: tumor volume after peptide vaccination; assay type: in vivo, C57Bl/6 mice; details: for effect on tumor volume: MC-38 tumor implant in C57Bl/6 mice, vs CFA/IFA; for peptide efficacy, MC-38 + B6 (Tumor Implant): summary table, Yes/No
Procedure: MC-38 tumor implant in-vivo experiments. At 6 weeks of age, mice were immunized in CFA/IFA, PBS, and vaccine groups. Each group received subcutaneous injections (100 ul PBS, 50 ul CFA with 50 ul PBS, 50 ug per peptide with 50 ul CFA) once every 10-14 days for a total of three doses. See Table 9 for peptides included in vaccine compositions. CFA was replaced with IFA for the second and third vaccines. Two weeks after the final vaccine, we subcutaneously implanted 4×10^4 MC-38 cells (murine adenocarcinoma), and measured tumor growth with Vernier calipers 2-3 times per week. Tumor volume was calculated as length×width×height×π/6, which is the standard volume calculation of an ellipsoid. Mice were sacrificed when tumor size in control mice reached greater than 1000 mm^3.

[5] = test system: small bowel tumor burden in APCmin mice; experiment: APCmin survival study: small bowel tumor count at sacrifice; assay type: in vivo; details: boosters every 4-5 weeks, vs CFA/IFA
Procedure: At 4-6 weeks of age, mice were immunized with CFA/IFA, PBS, and vaccine groups. Each group received subcutaneous injections (100 ul PBS, 50 ul CFA with 50 ul PBS, 50 ug per peptide with 50 ul CFA) once every 7-10 days for a total of three doses and a booster vaccine was given every 4-5 weeks after the third vaccine. See Table 6 for peptides included in vaccine compositions. CFA was replaced with IFA after the first vaccine. […] At sacrifice, small intestines were collected and small bowel tumors counted.

Molecule	effect on small bowel tumor burden (tumor count) [1]	peptide efficacy, APCmin Small Bowel (Spontaneous) [1]	effect on colon tumor burden (tumor count) [2]	peptide efficacy, APCmin Colon (Spontaneous) [2]	effect on colon tumor burden (tumor count) [3]	peptide efficacy, Azoxymethane + FVB (Induced) [3]	effect on tumor volume [4]	peptide efficacy, MC-38 + B6 (Tumor Implant) [4]	effect on small bowel tumor burden (tumor count) [5]
RCAS1: peptide vaccine of RCAS1 #13, #14, #21, #30, #31, 50 ug per peptide with CFA/IFA (with CFA/IFA adjuvant, peptide vaccine of RCAS1 #13, #14, #21, #30, #31, 50 ug per peptide with CFA/IFA) chain 1: EPDYFKDMTPTIRKTQKIVI chain 2: DYFKDMTPTIRKTQKIVIKKR chain 3: LFKFCTCLATVFSFLKRLIC chain 4: GFSSRLAATQDLPFIHQSSELGD chain 5: EEEDAAWQAEEVLRQQKLADR	vaccine efficacy; also recorded: significantly inhibits	Yes	lack of RCAS1 vaccine efficacy; also recorded: does not significantly inhibit	No	lack of RCAS1 vaccine efficacy; also recorded: do not significantly inhibit	No	significantly inhibits	Yes	
VCP: peptide vaccine of VCP #18, #19, #20, #23, 50 ug per peptide with CFA/IFA (with CFA/IFA adjuvant, peptide vaccine of VCP #18, #19, #20, #23, 50 ug per peptide with CFA/IFA) chain 1: IRMNRVVRNNLRVRLGDVISI chain 2: LQLFRGDTVLLKGKKRR chain 3: YFLEAYRPIRKGDIFLVRG chain 4: VEFKVVETDPSPYCIVAPDT	vaccine efficacy; also recorded: significantly inhibits	Yes	vaccine efficacy; also recorded: significantly inhibits	Yes	lack of VCP vaccine efficacy; also recorded: does not significantly inhibit	No	does not significantly inhibit	No	
PRL3: peptide vaccine of PRL-3 #1, #2, #3, #4, #29, 50 ug per peptide with CFA/IFA (with CFA/IFA adjuvant, peptide vaccine of PRL-3 #1, #2, #3, #4, #29, 50 ug per peptide with CFA/IFA) chain 1: VSYKHMRFLITHNPTNATL chain 2: FIEDLKKYGATTVVRVCEVTY chain 3: PCVAGLGRAPVLVALALIES chain 4: MKYEDAIQFIRQKRRGAIN chain 5: VEDWLSLVKAKFCEA	vaccine efficacy; also recorded: significantly inhibits	Yes	lack of PRL3 vaccine efficacy; also recorded: does not significantly inhibit	No	lack of PRL3 vaccine efficacy; also recorded: does not significantly inhibit	No	significantly inhibits	Yes	does not significantly inhibit
